The values that follow come from article PMC1088972, “Engineering a Dimeric Caspase-9: A Re-evaluation of the Induced Proximity Model for Caspase Activation” (PLoS Biology, 2005).

Data set [1] deals with the molecule itself. The experiment in a line: SEC; gel filtration of WT and engineered caspase-9 (Δ139, residues 140-416); unpublished data. Background: Size exclusion chromatography separates by hydrodynamic size, large species first.
Data set [2] concerns the molecule itself. The experiment in a line: crystal structure; hanging-drop vapor diffusion, 100 mM MES pH 6.0, 5% PEG 5000 monomethyl ether, 3% tacsimate; space group C2; two molecules of the dimer in the asymmetric unit; molecular replacement.

B1: engineered (dimeric) caspase-9 (Δ139, residues 140-416) (domain or fragment, UniProt P55211 140-416, looked up)
chain: GALESLRGNADLAYILSMEPCGHCLIINNVNFCRESGLRTRTGSNIDCEKLRRRFSSLHFMVEVKGDLTAKKMVLALLELAQQDHGALDCCVVVILSHGCQASHLQFPGAVYGTDGCPVSVEKIVNIFNGTSCPSLGGKPKLFFIQACGGEQKDHGFEVASTSPEDESPGSNPEPDATPFQEGLRTFDQLDAISSLPTPSDIFVSYSTFPGFVSWRDPKSGSWYVETLDDIFEQWAHSEDLQSLLLRVANAVSVKGIYKQMPCIVSMLRKKLFFKTS
notes: caspase-9, residues 140-416; prodomain and flexible linker removed; five residues of strand beta6 replaced by those of caspase-3 (Cys264-Ile-Val-Ser-Met268); Predicted dimer mass printed as 62,746 Da; written as one chain; also called engineered caspase-9 (Δ139); Δ139 dimeric caspase-9; source: E. coli BL21(DE3), vector pET-21b, purified (Ni-NTA, anion exchange Source-15Q, gel filtration …)
A word on the stoichiometry N: it is a count of units in the complex or per binding partner. Take B1: in data set [1], the “stoichiometry N” value came to 2.

B2: dimeric caspase-9 (residues 140-416, C287S) (domain or fragment, UniProt P55211 140-416, looked up)
chain: GALESLRGNADLAYILSMEPCGHCLIINNVNFCRESGLRTRTGSNIDCEKLRRRFSSLHFMVEVKGDLTAKKMVLALLELAQQDHGALDCCVVVILSHGCQASHLQFPGAVYGTDGCPVSVEKIVNIFNGTSCPSLGGKPKLFFIQASGGEQKDHGFEVASTSPEDESPGSNPEPDATPFQEGLRTFDQLDAISSLPTPSDIFVSYSTFPGFVSWRDPKSGSWYVETLDDIFEQWAHSEDLQSLLLRVANAVSVKGIYKQMPCIVSMLRKKLFFKTS
notes: caspase-9, residues 140-416; five residues of strand beta6 replaced by those of caspase-3; catalytic Cys287 mutated to Ser; Crystallised form; the model holds residues 140-288 and 335-416 (chains A, C) and 140-289 and 337-416 (chains B, D); also called dimeric caspase-9 (C287S); source: E. coli BL21(DE3), vector pET-21b, purified (Ni-NTA, anion exchange Source-15Q, gel filtration Superdex-200)
In the case of B2, in data set [2], the binding result is “binds”.
